{"source": "patent US20190161753", "proteins": {"B1": {"name": "Pyrococcus furiosus Cmr2 protein, wild type (PF1129) (protein)", "chain": "MVNIKEKLFVYLHDPPDKALKIENHEERSKKILSSGNIQYSRTDKVKQADALSSKTQRFIIRTKENKEPVIDFLGRSSGKYFHVGYPVFIHPISTEIKRYETLEKYIDLGRSNRGERFVNEFLERVSKLEGDVLKEVFEDASNKFKGEESKQWAYIWQFYPVKLKEGVKEFAKSELKLKEEEAEKFAEEFVNLPADTRFPDHAIWTHLDLTSALSVKDPTLLRIKIVPVQPFIANSRKQLDLWASSHLLSMLMYKALEVIVDKFGPEHVIYPSLRDQPFFLKFYLGENIGDEILVANLPNKALAIVSGKEAEKIEEEIKKRIRDFLLQLYREAVDWAVENGVVKVDRSEKDSMLKEAYLKIVREYFTVSITWVSLSEKEDIYQVTENAGLSDEDVKKWLKFAEKKENSRVLERIAIYPLLVKILDSLGERKVTEERFEKSEQLKGWKCHVCGENLAIFGDMYDHDNLKSLWLDEEPLCPMCLIKRYYPVWIRSKTGQKIRFESVVDVALLYKNWRKIFDEKYGKDLVSKAREVSEDFVKDNMLVDSDLYYSSTWESGLSKKLKNKKEIDEEKVKEVVDFLNAAYKEIGNPPKYYAILVMDGDDMGKVISGEVLGEISTRIHPNIRDYVEIPEAKYYSTPQVHVAISQALANFSIREVRSVVKDEGLLIYAGGDDVLAILPVDKALEVAYKIRKEFGKSFENGSLLPGWKLSAGILIVHYKHPLYDALEKARDLLNNKAKNVPGKDTLAIGLLKRSGSYYISLVGWELIRVFYNSELRKKLLEEKGGVGKRFIYHVLREVDTWPKVGIDEMLKFEVIRHIRGRNKEETKELREKIYGEIKDLLEHVRGNNEVEKVRGLFTFLKIITDAEVFP"}}, "target": "T1, The other proteins of the P. furiosus Cmr effector complex (Cmr1, Cmr3, Cmr4, Cmr5, Cmr6, with crRNA)", "T1 chain 1": "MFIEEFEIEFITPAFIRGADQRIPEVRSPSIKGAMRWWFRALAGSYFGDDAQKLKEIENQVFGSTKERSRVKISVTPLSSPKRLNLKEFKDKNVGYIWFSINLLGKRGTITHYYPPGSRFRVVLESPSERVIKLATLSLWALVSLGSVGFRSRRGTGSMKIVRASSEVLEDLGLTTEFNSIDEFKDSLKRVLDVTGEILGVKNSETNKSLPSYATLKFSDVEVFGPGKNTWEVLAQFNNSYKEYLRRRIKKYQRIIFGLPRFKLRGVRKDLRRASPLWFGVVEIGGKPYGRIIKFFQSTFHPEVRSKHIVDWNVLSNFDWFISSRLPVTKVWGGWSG", "T1 chain 2": "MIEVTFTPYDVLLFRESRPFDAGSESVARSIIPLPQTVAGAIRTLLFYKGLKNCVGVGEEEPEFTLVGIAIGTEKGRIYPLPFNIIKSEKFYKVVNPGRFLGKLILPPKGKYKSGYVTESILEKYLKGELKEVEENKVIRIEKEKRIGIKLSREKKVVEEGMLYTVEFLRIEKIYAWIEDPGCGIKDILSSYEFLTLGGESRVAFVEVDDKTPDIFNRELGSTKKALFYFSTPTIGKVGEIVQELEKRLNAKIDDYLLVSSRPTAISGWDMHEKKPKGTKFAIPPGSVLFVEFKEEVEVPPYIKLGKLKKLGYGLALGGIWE", "T1 chain 3": "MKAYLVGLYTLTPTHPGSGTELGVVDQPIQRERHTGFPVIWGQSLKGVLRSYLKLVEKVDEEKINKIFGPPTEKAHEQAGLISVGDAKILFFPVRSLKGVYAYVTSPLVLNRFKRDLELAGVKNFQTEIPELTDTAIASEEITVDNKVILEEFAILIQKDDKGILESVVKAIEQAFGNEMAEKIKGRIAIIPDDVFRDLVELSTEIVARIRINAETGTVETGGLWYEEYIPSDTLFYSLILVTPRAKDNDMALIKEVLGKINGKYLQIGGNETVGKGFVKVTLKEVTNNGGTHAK", "T1 chain 4": "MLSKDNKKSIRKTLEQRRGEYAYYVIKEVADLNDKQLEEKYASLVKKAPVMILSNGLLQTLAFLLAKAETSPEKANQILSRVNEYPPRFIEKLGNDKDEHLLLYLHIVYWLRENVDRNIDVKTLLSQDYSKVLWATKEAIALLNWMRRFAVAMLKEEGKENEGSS", "T1 chain 5": "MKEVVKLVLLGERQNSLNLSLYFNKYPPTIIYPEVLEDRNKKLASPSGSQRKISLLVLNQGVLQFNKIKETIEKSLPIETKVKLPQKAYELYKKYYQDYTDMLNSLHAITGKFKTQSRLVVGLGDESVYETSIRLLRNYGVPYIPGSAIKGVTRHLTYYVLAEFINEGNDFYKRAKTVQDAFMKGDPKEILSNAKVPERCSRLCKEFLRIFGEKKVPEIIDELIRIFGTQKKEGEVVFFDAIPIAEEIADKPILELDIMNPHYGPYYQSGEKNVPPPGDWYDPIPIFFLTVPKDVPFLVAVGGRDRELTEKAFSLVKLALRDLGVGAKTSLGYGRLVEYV", "data": [{"protein": "B1", "values": [{"measurement": "ssDNA nuclease activity (cleavage of 5' radiolabeled ssDNA oligo, denaturing PAGE)", "value": "The reconstituted Cmr complex (including Cmr1-6 and crRNA) displays very little ssDNA nuclease activity in comparison with approximately equimolar concentrations of Cmr2 alone"}]}]}
